{
  "source": "the nanobody polyreactivity screen of Harvey et al. (2022)",
  "data": [
    {"assay": "yeast display, Sf9 membrane polyspecificity reagent, FACS + sequencing; frameworks hold sequencing errors", "procedure,_shortened": "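Genes from sorted yeast were amplified by colony PCR, read by MiSeq 2 × 250 sequencing and filtered on CDR length. These cells carried a synthetic nanobody library in Saccharomyces cerevisiae BJ5465 and were sorted by FACS into low and high (top ~1%) gates on anti-HA and streptavidin fluorescence. Polyreactivity is labelled according to the gate of origin.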", "values": [
      {"sequence": "QVQLVESGGGLVQAGGSLRLSCAASGSIFVDNAMGWYRQAPGKETQLVAAIRSRDTSTYYADSVKGRFSISLDNAKNTVYLQMNSLKPEDTAVYYCAARTSKRVSQYNYWGQGTQVTVSS", "polyreactivity (PSR sort gate)": "high polyreactivity"},
      {"sequence": "QVQLVESGGGLVQAGGSLRLSCAASGSIFVFYAMGWYRQAPGKERELVASITSSGGSTYYADSVKGRFTISRDNAKNTVYLQMNSLKPEDTAVYYCAARKYRNPYYYRYYYWGQGTQVTVSS", "polyreactivity (PSR sort gate)": "high polyreactivity"},
      {"sequence": "QVQLVESGGGLVQAGGSLRLSCAASGSIFVGNAMGLYRQAPGKERELVAAISSSGGRTFYADSVKGRFTISRDIAKNSVYLQMNSLKPEDTAVYYCAAYLWSYVFNLYEYWGQGTQVTVSS", "polyreactivity (PSR sort gate)": "high polyreactivity"},
      {"sequence": "QVQLVESGGGLVQAGGSLRLSCAASGSIFVGNAMGWYRQAPGKERELVAAISSSGGSTYYADSVKGRFTISRDYAKNSVYLQMNSLKPEYTAVYDCAADTYSTSGYYYWGQGTQVTVSS", "polyreactivity (PSR sort gate)": "low polyreactivity"},
      {"sequence": "QVQLVESGGGLVQAGGSLRLSCAASGSIFVGYAMGLYRQAPGKERELVAAISASGGRTYYADSVKGRFTISRDNAKNTVYLQMNSLKPEDTAVYYCATDDYWGRGTQVTVSS", "polyreactivity (PSR sort gate)": "high polyreactivity"},
      {"sequence": "QVQLVESGGGLVQAGGSLRLSCAASGSIFVGYAMGWYRQAPGKERELVAAISKSGGSTYYADSVKGRYTISRDNAKNTVYLQMNSLKPEDTAVYYCAAYPVRLVYSQHRYQYDYWGQGTQVTVSS", "polyreactivity (PSR sort gate)": "high polyreactivity"},
      {"sequence": "QVQLVESGGGLVQAGGSLRLSCAASGSIFVGYAMGWYRQAPGKERELVAAISVRGASTYYADSVKGRFTISRDNAKNTVYLQMNSLKPEDTAVYYCAARGNTPRTRRYGYWGQGTQVTVSS", "polyreactivity (PSR sort gate)": "high polyreactivity"},
      {"sequence": "QVQLVESGGGLVQAGGSLRLSCAASGSIFVGYAMGWYRQAPGKERELVASINYSGGTTDYADSVKGRFTISRDNAKNTVYLQMNSLKPEDTAVYYCAKTAVDWSFTKGVDYDYWGQGTQVTVSS", "polyreactivity (PSR sort gate)": "low polyreactivity"},
      {"sequence": "QVQLVESGGGLVQAGGSLRLSCAASGSIFVHYAMGWYIQEPGKERELVARISWRGNTYYADSVKGRFTISRDNAKNTVYLQMNSLKPEDTAVYYCAKDVRRSLVNWDVVYPHGYWGQGTQVTVSS", "polyreactivity (PSR sort gate)": "low polyreactivity"},
      {"sequence": "QVQLVESGGGLVQAGGSLRLSCAASGSIFVHYAMGWYRQAPGKERELVAAITSSGGRTYYADSVKGRFTISRDNAKNTVYLQMNSLKPEDTAVYYCNAAKYLFRHGFLSAGDMYYWGQGTQVTVSS", "polyreactivity (PSR sort gate)": "high polyreactivity"},
      {"sequence": "QVQLVESGGGLVQAGGSLRLSCAASGSIFVHYAMGWYRQAPGKERELVARISWRGNTYYADSVKGRFTISRDNAKNTVYLQMNSLKPEDTAVYYCAAEYFWYYYYLMDYWGQGTQVTVSS", "polyreactivity (PSR sort gate)": "low polyreactivity"},
      {"sequence": "QVQLVESGGGLVQAGGSLRLSCAASGSIFVINPMGWYRPAPGKERELVATIRARAGSTYYADSVKGRFTISRDNAKNSVYLQMNSLKPEDTAVYYCAARLKSYRVDYWGQGTQVTVSS", "polyreactivity (PSR sort gate)": "high polyreactivity"},
      {"sequence": "QVQLVESGGGLVQAGGSLRLSCAASGSIFVIYAMGWYRQAPGKERELVAAISWNGGSTFYADSVKGRFTISRDNAKNTVYLQMNSLKPDDTAVYDCNTVASYYRWKSYYYWGQGTQVTVSS", "polyreactivity (PSR sort gate)": "high polyreactivity"},
      {"sequence": "QVQLVESGGGLVQAGGSLRLSCAASGSIFVKNAMGWYRPAPGKEREFVAAITTSGGSTNYADSVKGRFTISRDNAKNTVYLQMTSLKPEDTAVYYCNTDIFPAAYDYWVQGTQVTVSS", "polyreactivity (PSR sort gate)": "low polyreactivity"},
      {"sequence": "QVQLVESGGGLVQAGGSLRLSCAASGSIFVKNAMGWYRQAPGKERELVAVITIRTATTYYADSVKGRFTISRDNAKNTVYLQMNSLKPEVTAVYYCAAAKRQRGYLQREGNYWGQGTQVTVSS", "polyreactivity (PSR sort gate)": "low polyreactivity"},
      {"sequence": "QVQLVESGGGLVQAGGSLRLSCAASGSIFVLNAMGWSRQAPGKETELVAAISYSGTGTYYADSVKGRFTISRDNAKNTVYLQMNSLKPEDTAVYDCAADYYYRYRIYDYWGQGTQVTLSS", "polyreactivity (PSR sort gate)": "low polyreactivity"},
      {"sequence": "QVQLVESGGGLVQAGGSLRLSCAASGSIFVLYAMGWYRQAPGKERELVAAIDFGGGSTYYADSVKGRFTISRDNAKNTVYLQMNSLKPEYTAVYYCAAELYYTYRWYDYWGQGTQVTVSS", "polyreactivity (PSR sort gate)": "high polyreactivity"},
      {"sequence": "QVQLVESGGGLVQAGGSLRLSCAASGSIFVLYAMGWYRQAPGKERELVAAITSGASTNYADSVKGRFTISRDNAKNTVYLQMNSLKPEDTAVYYCNTGSRLDRVDSWGQGTQVTVSS", "polyreactivity (PSR sort gate)": "low polyreactivity"},
      {"sequence": "QVQLVESGGGLVQAGGSLRLSCAASGSIFVNYAMGWYRQAPGKERELVAAISTGGGRTFYADSVKGRFTISRDNAKNTVYLQMNSLKPEDTAVYYCNKLGRPEYDYWGQGTQVTVSS", "polyreactivity (PSR sort gate)": "high polyreactivity"},
      {"sequence": "QVQLVESGGGLVQAGGSLRLSCAASGSIFVPNDMGWYRQAPGKEREFVAAITESDGSTYNADSVKGRFTISRDNAKNTVYLQMNSLKPEDTAVYYCATDSTGVTIVHFDYWGQGTQVTVSS", "polyreactivity (PSR sort gate)": "low polyreactivity"},
      {"sequence": "QVQLVESGGGLVQAGGSLRLSCAASGSIFVPYAMGWTRQAPGKERELVAAIRRSGGRTYYADSVKGRFTISRDNAKNNVYLQMKSLKPEYTAVFYCAARQRYFWYTSNYNYWAQGTQVTVSS", "polyreactivity (PSR sort gate)": "high polyreactivity"},
      {"sequence": "QVQLVESGGGLVQAGGSLRLSCAASGSIFVPYAMGWYRQAPGKEREFVAAMYSGGGNTYYADSVKGRFTISRDNAKNTVYLQMNSLKREDTAVYYCAAAYVYSSWSRYDYWGQGTQVTVSS", "polyreactivity (PSR sort gate)": "high polyreactivity"},
      {"sequence": "QVQLVESGGGLVQAGGSLRLSCAASGSIFVPYAMGWYRQAPGKERELDAVITSGGSTYYADSVKGRFSISRDNAKNTVYLQMNSLKPEDTAVYYCNADLYYVWSTLSQFDYWGQGTQVTVSS", "polyreactivity (PSR sort gate)": "low polyreactivity"},
      {"sequence": "QVQLVESGGGLVQAGGSLRLSCAASGSIFVPYAMGWYRQAPGKERELVAAISSGGGRTYYADSVKGRFTISRDNAKNTVYLQMNRLKPEDTAVYYCAARYYIGYGHRTYGYDYWGQGTQVTVSS", "polyreactivity (PSR sort gate)": "high polyreactivity"},
      {"sequence": "QVQLVESGGGLVQAGGSLRLSCAASGSIFVPYGMGWYRKAPGTDRELVAAITFRTTSTYYADSVKGRFTISRDNAKNTVYLQMNSLKPEDTAVYYCNKGDYRTYPYDYWGQGTQVTVSS", "polyreactivity (PSR sort gate)": "low polyreactivity"},
      {"sequence": "QVQLVESGGGLVQAGGSLRLSCAASGSIFVQNRMGWYRQAPGKERELVAAITFSGVDTYYADSVKGRFTISRDNAKNTVYLQMNSLKPEDTAVYYCAARVQHYLSTDDYWGQGTQVTVSS", "polyreactivity (PSR sort gate)": "low polyreactivity"},
      {"sequence": "QVQLVESGGGLVQAGGSLRLSCAASGSIFVQYDMGWYRQAPGKERELVAAISWSGGSTYYADSVKGRFTISRDNAKNTVYLQMNTLKPEDTAVYYCAARARLWYFSYGYWGQGTQVTVSS", "polyreactivity (PSR sort gate)": "low polyreactivity"},
      {"sequence": "QVQLVESGGGLVQAGGSLRLSCAASGSIFVRNAKGCYRQAPWKERELVAAITATGGRTYYADSVKGRFTISRDNAKNTVYLQMNSLKPEDTAVYYCAAYYPRSGYDYWGQGTQVNVSS", "polyreactivity (PSR sort gate)": "high polyreactivity"},
      {"sequence": "QVQLVESGGGLVQAGGSLRLSCAASGSIFVRNAMGWYRQSPGKERELVAAITSGDSTNYADSVKGRFTISRDNAKNTVYLQMYCLKPEDTAVYYCNAQIYSVYRDGRDIYKYDYWGQGTQVTVSS", "polyreactivity (PSR sort gate)": "low polyreactivity"},
      {"sequence": "QVQLVESGGGLVQAGGSLRLSCAASGSIFVRNGMGWYRQAPGKDRELVASITSGTITYYADSVKGRFTISRDNAKNTVYLQMNSLKPEDTAVYDCNAGWRSSRFKRPYFRERNYWGQGTQLTVSS", "polyreactivity (PSR sort gate)": "high polyreactivity"},
      {"sequence": "QVQLVESGGGLVQAGGSLRLSCAASGSIFVSYAMGWYRQAPGKERELVAAITSAGTTYYADSVKGRFTISRDNAKNTVYLQMNSLKPEDTAVYYCNADTYGYYLWTGAVSAGDDYWGQGTQVTVSS", "polyreactivity (PSR sort gate)": "low polyreactivity"},
      {"sequence": "QVQLVESGGGLVQAGGSLRLSCAASGSIFVSYAMGWYRQAPGKERELVAAITYSGGRTYYADSVKGRFTISRDNAKNTVYLQMNCLKPEDTAVYYCAKRVSYPVRFPYFSYDYWGQGTQVTVSS", "polyreactivity (PSR sort gate)": "low polyreactivity"},
      {"sequence": "QVQLVESGGGLVQAGGSLRLSCAASGSIFVTNAMGWYRQAPGKERELVAAISVSGGSTYYADSEKGRITISRDNAKNTVYLQMNRLKAEDTAGYYCNARQVFTTAGREMDYWGQGTQVTVSS", "polyreactivity (PSR sort gate)": "low polyreactivity"},
      {"sequence": "QVQLVESGGGLVQAGGSLRLSCAASGSIFVTNAMGWYRQAPGKERELVAAISWSGDNTYYADSVKGRFTISRDNAKNTFYLQMNSLIPEDTAVYYCSTDVWYSYDYYYGDWGYEYWGQGTQVTVSS", "polyreactivity (PSR sort gate)": "high polyreactivity"},
      {"sequence": "QVQLVESGGGLVQAGGSLRLSCAASGSIFVTNVMGWYRQAPGKERELVAVINSGGRTYYADSVKGRFTISRDNAKNTVYLQMNSLKPEDTAVYYCAKDSWSSFQSLYPEFDYWGQGTQVTVSS", "polyreactivity (PSR sort gate)": "low polyreactivity"},
      {"sequence": "QVQLVESGGGLVQAGGSLRLSCAASGSIFVWNAMGWYRQAPGKERELVAAITNICGRTYYADSVKGRFTISRDNAKNTVYLQMNSLKPEDTAVYYCNTDRVSRLGWSTTSDSWGQGTQVTVSS", "polyreactivity (PSR sort gate)": "high polyreactivity"},
      {"sequence": "QVQLVESGGGLVQAGGSLRLSCAASGSIFVWYAMGWYRQAPGRKELVAAISWSGGTTYYADSVKGRFTISRDNAKNTVYLQMNSLKPEDTAVYYCAARGAVQASFYYWGQGTQVTVSS", "polyreactivity (PSR sort gate)": "high polyreactivity"},
      {"sequence": "QVQLVESGGGLVQAGGSLRLSCAASGSIFVYNAMGWYRQAPGKERELVASITWSGGRTYYADSVKGRFTNSRDNAQNTVYLQMNSLKPEDTAVYYCAADSPRGYDYWGQGTQVTVSS", "polyreactivity (PSR sort gate)": "high polyreactivity"},
      {"sequence": "QVQLVESGGGLVQAGGSLRLSCAASGSIFVYVMGWYRQAPGKERELVAAISSGGSTDYADSVKGRFTISRDNAQNTVYLQMNSLKPEDTAVYYCAADTDTGYTYYYWGQGTQVTVSS", "polyreactivity (PSR sort gate)": "low polyreactivity"},
      {"sequence": "QVQLVESGGGLVQAGGSLRLSCAASGSIFVYYAMGWYRQAPGKERELVAAINFRGGNTYYADSVKGRFTISRDNAKNTVYLQMNSLKPEDTAVYYCAADYRWKWIGGARYDYWGQGTQVTVSS", "polyreactivity (PSR sort gate)": "low polyreactivity"}
    ]}
  ]
}
